# Assay results from US20060258607.
# Target: biotinylated human D-ghrelin (octanoylated) (Homo sapiens) (UniProt Q9UBU3)
# Test: pulldown
# Conditions: 37 C, 1 mM Ca/Mg, 47% active
# Chain of UniProt Q9UBU3 (Q9UBU3 24-51): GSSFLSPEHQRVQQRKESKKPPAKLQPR
sequence,measurement,value
"CGUGUGAGGCAAUAAAACUUAAGUCCGAAGGUAACCAAUCCUACACG [SOT-C (B11trc, D-RNA)]",Kd,0.1 µM
